{"source": "paper PMC8548916", "target": "Cnm1 (contact nucleus mitochondria 1) tagged with GFP on its C terminus (S. cerevisiae)", "experiment": "co-IP; GFP-Trap beads precipitate Cnm1-GFP from cleared yeast lysate (1% digitonin, 150 mM NaCl, 50 mM Tris-HCl pH 8.0, 5% glycerol, 1 mM MgCl2), 1 h at 4°C; Western blot with antibodies against GFP and mCherry; enrichment by densitometry"}
{"substance": "Tom70 tagged with mCherry on its C terminus (from UniProt P07213 1-617) (natural protein)", "values": [{"measurement": "fold enrichment in the immunoprecipitate relative to Tom20", "result": 2, "unit": "fold"}]}
